Results on one substance are retold here after paper PMC11286566.

Assay [1] concerns the target Catcher-AP205 (Catcher of the isopeptide linkage system, flexible linker, bacteriophage AP205 VLP subunit) (bacteriophage AP205). Kind of assay: SDS-PAGE densitometry of the covalent conjugate; catcher-AP205 and gE-Tag mixed at a 1:2 molar ratio, 24 h at 22°C, then dialysed into 50 mM glycine, 25 mM sodium citrate, 0.1% Tween 20, pH 6.2; coupling efficiency by densitometry of reduced SDS-PAGE; isopeptide bond between Tag and Catcher.

Assay [2] deals with Catcher-Ferritin (Catcher of the isopeptide linkage system, flexible linker, Ferritin NP subunit). Briefly: SDS-PAGE densitometry of the covalent conjugate; catcher-Ferritin and gE-Tag mixed at a 1:6 molar ratio, 24 h at 4°C; uncoupled gE-Tag removed by SEC (Superdex 200 Increase, 20 mM Tris-HCl, 25% sucrose w/v, pH 7.4); coupling efficiency by densitometry of reduced SDS-PAGE; isopeptide bond between Tag and Catcher. (Size exclusion chromatography separates by hydrodynamic size, large species first.)

“gE-Tag (extracellular domain of VZV glycoprotein E with a C-terminal Tag of the isopeptide linkage system) (from UniProt P09259 31-544)”: the conjugation efficiency in assay [1] and in assay [2] was > 70% in each case.
